Experimental findings from PMC4562812 are described below.

The term stoichiometry N denotes a count of units in the complex or per binding partner.

The experiment has as its target full-length recombinant H7 hemagglutinin (rH7) of A/Anhui/1/2013 (H7N9) virus (influenza A virus A/Anhui/1/2013 (H7N9)). Put plainly: SEC. On the technique in general: In gel filtration, larger molecules generally elute earlier.

As for “full-length recombinant H7 hemagglutinin (rH7) of A/Anhui/1/2013 (H7N9) virus (natural protein)”, the stoichiometry N stood at 3.
